Paper PMC8764033, “Single-molecule analysis of specificity and multivalency in binding of short linear substrate motifs to the APC/C” (Nature Communications, 2022)
Where “and” joins values, the source holds several entries; their conditions need not be identical. Equal values may be shown once. Where no end group is shown, it is not given here. Cy5 = cyanine-5 fluorescent label

T1: WD40 domain of Cdh1 from Saccharomyces cerevisiae (aa 241–550), for anisotropy (S. cerevisiae, UniProt P53197 241-550)
T1 construct: Cdh1, S. cerevisiae, WD40 domain, aa 241-550; Cloned into pFastBac HT A; also called Cdh1^WD40; Cdh1 WD40; source: Sf9, baculovirus, purified (StrepTrap)
T1 sequence (looked up): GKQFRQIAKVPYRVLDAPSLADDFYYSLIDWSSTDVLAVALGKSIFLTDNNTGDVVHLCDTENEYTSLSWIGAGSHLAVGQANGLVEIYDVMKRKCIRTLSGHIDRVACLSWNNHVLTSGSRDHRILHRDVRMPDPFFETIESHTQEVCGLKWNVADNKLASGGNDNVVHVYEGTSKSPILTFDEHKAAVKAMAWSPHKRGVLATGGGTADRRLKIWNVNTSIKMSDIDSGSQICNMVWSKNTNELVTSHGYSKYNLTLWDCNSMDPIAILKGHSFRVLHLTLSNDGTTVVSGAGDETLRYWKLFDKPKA

T2: GFP-tagged WD40 domain of yeast Cdh1 (aa 241–550), for SMOR (S. cerevisiae, UniProt P53197 241-550)
T2 construct: Cdh1, S. cerevisiae, WD40 domain, aa 241-550; also called Cdh1^WD40; GFP-tagged Cdh1^WD40; source: Sf9, baculovirus, purified (StrepTrap); not shown: 2xStrep-Tag II, N-terminal, kept; GFP, C-terminal, kept
T2 sequence (looked up): T1 sequence (looked up)

B1: Cy5-labeled ySecurin KEN peptide (peptide)
chain: PANEDKENNIVYTGK-Cy5
B2: Cy5-labeled Hsl1 KEN peptide (peptide)
chain: GVSTNKENEGPEYPTKIEK-Cy5
B3: Hsl1 fragment (amino acids 667–872) with C-terminal HaloTag, mutations in the D box (domain or fragment)
chain: QNSASKRSLYSLQSISKRSLNLNDLLVFDDPLPSKKPASENVNKSEPHSLESDSDFEILCDQILFGNALDRILEEEEDNEKERDTQRQRQNDTKSSADTFTISGVSTNKENEGPEYPTKIEKNQFNMSYKPSENMSGLSSFPIFEKENTLSSSYLEEQKPKAAAASDITASFNKMNKQEGMRIEKKIQREQLQKKNDRPSPLKPIQ
modifications: JF549 or JF646 dye covalently bound to the HaloTag
B4: Cy5-labeled AurKB D box peptide (peptide)
chain: LPKATRKALGTVNRATEKSVKK-Cy5
B5: Cy5-labeled Hsl1 D box peptide (peptide)
chain: EQKPKRAALSDITNSFNKMNK-Cy5
B6: Cy5-labeled Clb5 D box peptide (peptide)
chain: QDSKPRRALTDVPVNNNPLSQK-Cy5
B7: Cy5-labeled ySecurin D box peptide (peptide)
chain: AQQQGRLPLAAKDNNRSKSFIK-Cy5
B8: Cy5-labeled hSecurin KEN box peptide (peptide)
chain: LIYVDKENGEPGTRK-Cy5

What was measured:
Details in all cases: both partners purified
[1] = target: T1, WD40 domain of Cdh1 from Saccharomyces …; assay: fluorescence polarisation; fluorescence anisotropy; 10 nM C-terminally Cy5-labeled peptide mixed with increasing concentrations of purified protein (Cdh1 WD40 up to 30.6 µM); wash buffer B (50 mM Tris-HCl pH 8, 150 mM KCl, 0.5 mM EDTA, 1 mM DTT, 10% glycerol); 25 °C; one-site equilibrium fit
[2] = target: T3, GFP-tagged WD40 domain of human Cdh1 (aa 165–484), for SMOR (human, UniProt Q9UM11 165-484); assay: single-molecule off-rate (SMOR) assay, TIRF microscopy; target held on PEG/PEG-biotin glass by NeutrAvidin and biotinylated anti-Strep-Tag II antibody (tag on the activator); dye-labeled ligand (peptide no greater than 1 nM) in buffer C + BSA (20 mM HEPES pH 7.5, 150 mM KCl, 10% glycerol, 0.05% Tween-20, 1 mM DTT) with oxygen scavengers; mean dwell time from an exponential distribution; dwell times below 100 ms …
T3 construct: human Cdh1, WD40 domain, aa 165-484; also called hCdh1^WD40; human Cdh1^WD40; source: Sf9, baculovirus, purified (StrepTrap); not shown: 2xStrep-Tag II, N-terminal, kept; GFP, C-terminal, kept
T3 sequence (Q9UM11 165-484): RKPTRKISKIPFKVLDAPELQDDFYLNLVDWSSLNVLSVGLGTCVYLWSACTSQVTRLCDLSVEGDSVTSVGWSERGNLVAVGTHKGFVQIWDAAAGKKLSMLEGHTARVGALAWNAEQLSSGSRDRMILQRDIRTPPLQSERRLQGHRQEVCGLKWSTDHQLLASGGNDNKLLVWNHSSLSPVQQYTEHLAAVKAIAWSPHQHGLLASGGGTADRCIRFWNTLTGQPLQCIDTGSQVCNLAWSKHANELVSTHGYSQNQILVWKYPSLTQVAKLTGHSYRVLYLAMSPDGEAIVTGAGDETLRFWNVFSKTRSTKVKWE

[3] = target: T1, WD40 domain of Cdh1 from Saccharomyces …; assay: fluorescence polarisation; fluorescence anisotropy as a1, 10 nM labeled Hsl1 degron peptide with 100 µM unlabeled peptide of the other Hsl1 degron present
[4] = target: T2, GFP-tagged WD40 domain of yeast Cdh1 …; assay: single-molecule off-rate (SMOR) assay, TIRF microscopy; target held on PEG/PEG-biotin glass by NeutrAvidin and biotinylated anti-Strep-Tag II antibody (tag on the activator); dye-labeled ligand (peptide no greater than 1 nM) in buffer C + BSA (20 mM HEPES pH 7.5, 150 mM KCl, 10% glycerol, 0.05% Tween-20, 1 mM DTT) with oxygen scavengers; mean dwell time from an exponential distribution; dwell times below 100 ms …
[5] = target: T4, Cdh1-activated yeast APC/C (S. cerevisiae | S. cerevisiae …, UniProt P53197 1-566; P53886 1-1748; P09798 1-840; P38042 1-758; P53068 1-250); assay: as above
T4 construct: Apc1 subunit of the APC/C, from yeast strain NHY13; Cdc16 subunit of the APC/C (Cdc16-TAP); Cdc27 subunit of the APC/C; Apc10/Doc1 subunit of the APC/C; only Apc1, Cdc16, Cdc27 and Apc10 are named; the yeast strain lacks endogenous Cdh1; TEV cleavage of the TAP tag may leave part of the tag on Cdc16; also called APC/C^Cdh1; not shown: 2xStrep-Tag II, N-terminal, kept; GFP, C-terminal, kept; …

[6] = target: T2, GFP-tagged WD40 domain of yeast Cdh1 …; assay: fluorescence polarisation + other: single-molecule off-rate (SMOR) assay; inferred constants: kon from the KD of anisotropy and the koff of SMOR; KD for APC/C^Cdh1 from the dwell time with the kon of Cdh1 alone assumed
[7] = target: T4, Cdh1-activated yeast APC/C; assay: as above
[8] = target: T3, GFP-tagged WD40 domain of human Cdh1 …; assay: as above
[9] = target: T5, WD40 domain of human Cdh1 (aa 165–484), for anisotropy (human, UniProt Q9UM11 165-484); assay: fluorescence polarisation; fluorescence anisotropy; 10 nM C-terminally Cy5-labeled peptide mixed with increasing concentrations of purified protein (Cdh1 WD40 up to 30.6 µM); wash buffer B (50 mM Tris-HCl pH 8, 150 mM KCl, 0.5 mM EDTA, 1 mM DTT, 10% glycerol); 25 °C; one-site equilibrium fit
T5 construct: human Cdh1, WD40 domain, aa 165-484; Cloned into pFastBac HT A; also called human Cdh1 WD40; source: Sf9, baculovirus, purified (StrepTrap)
T5 sequence (Q9UM11 165-484): as above

[10] = target: T6, WD40 domain of human Cdc20 (aa 162–484), for anisotropy (human, UniProt Q12834 162-484); assay: as above
T6 construct: human Cdc20, WD40 domain, aa 162-484; Cloned into pFastBac HT A; also called human Cdc20 WD40; source: Sf9, baculovirus, purified (StrepTrap)
T6 sequence (Q12834 162-484): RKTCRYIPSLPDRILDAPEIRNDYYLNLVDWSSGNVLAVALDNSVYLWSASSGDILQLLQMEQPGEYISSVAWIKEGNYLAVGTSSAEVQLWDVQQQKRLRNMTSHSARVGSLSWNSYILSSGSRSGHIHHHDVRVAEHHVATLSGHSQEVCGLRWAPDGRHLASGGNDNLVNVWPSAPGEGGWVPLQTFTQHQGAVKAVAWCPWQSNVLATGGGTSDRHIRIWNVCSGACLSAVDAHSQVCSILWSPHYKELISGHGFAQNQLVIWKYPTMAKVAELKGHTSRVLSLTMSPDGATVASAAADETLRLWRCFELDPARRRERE

[11] = target: T2, GFP-tagged WD40 domain of yeast Cdh1 …; assay: single-molecule off-rate (SMOR) assay, TIRF microscopy; target held on PEG/PEG-biotin glass by NeutrAvidin and biotinylated anti-Strep-Tag II antibody (tag on the activator); dye-labeled ligand (peptide no greater than 1 nM) in buffer C + BSA (20 mM HEPES pH 7.5, 150 mM KCl, 10% glycerol, 0.05% Tween-20, 1 mM DTT) with oxygen scavengers; mean dwell time from an exponential distribution; dwell times below 100 ms …; remark: listed apart in the source
[12] = target: T7, Cdc20-activated yeast APC/C (S. cerevisiae | S. cerevisiae …, UniProt P26309 1-610; P53886 1-1748; P09798 1-840; P38042 1-758; P53068 1-250); assay: as above
T7 construct: Apc1 subunit of the APC/C, from yeast strain NHY13; Cdc16 subunit of the APC/C (Cdc16-TAP); Cdc27 subunit of the APC/C; Apc10/Doc1 subunit of the APC/C; only Apc1, Cdc16, Cdc27 and Apc10 are named; TEV cleavage of the TAP tag may leave part of the tag on Cdc16; also called APC/C^Cdc20; not shown: 2xStrep-Tag II, N-terminal, kept; GFP, C-terminal, kept; copies: + + + + + + + + + + + + +

[13] = target: T8, GFP-tagged WD40 domain of human Cdc20 (aa 162–484), for SMOR (human, UniProt Q12834 162-484); assay: as above
T8 construct: human Cdc20, WD40 domain, aa 162-484; also called hCdc20^WD40; human Cdc20^WD40; source: Sf9, baculovirus, purified (StrepTrap); not shown: 2xStrep-Tag II, N-terminal, kept; GFP, C-terminal, kept
T8 sequence (Q12834 162-484): as above

Binder	Kd [1]	mean dwell time [2] [s]	mean dwell time [4] [s]	mean dwell time [5] [s]	mean dwell time [12] [s]	also measured
B1	26 µM and 40 µM	0.869				
B2	14 µM and 12 µM	1.48	0.166	0.185		fold improvement of affinity with saturating unlabeled D box peptide, against no D box peptide [3]: ~4 fold
B3			0.421	0.374		
B4		0.202				
B5	3.5 µM and 4 µM	4.52	0.36	35.3	0.412	fold improvement of affinity with unlabeled Hsl1 KEN peptide, against no KEN peptide [3]: ~3 fold; kon [6]: 800000 M⁻¹ s⁻¹; Kd [7]: 0.036 µM; kon [8]: 100000 M⁻¹ s⁻¹; Kd [9]: ~2 µM; Kd [10]: ~2 µM; koff [11]: 2.8 s⁻¹; mean dwell time [13]: 1.08 s
B6				0.159	0.207	mean dwell time [13]: 0.054 s
B7				0.132	1.87	
B8		0.174				
